Target: elastase
Test: Given as 'coupling constant'. Second-order association with elastase, 8 nM each, residual elastase activity on succinyl-Ala-Ala-Ala-pNA at 410 nm over 1-10 min (Beatty et al.)

Substance	kon
Human blood plasma AT (alpha-1-antitrypsin, A9204, Sigma) (from UniProt P01009 25-418)	1.7e+06 M⁻¹ s⁻¹
Mutant recombinant AT F51L/M374I (human alpha-1-antitrypsin mutein, Korean Patent No. 133252) (from UniProt P01009 25-418)	1.7e+06 M⁻¹ s⁻¹
Mutant recombinant AT K168C/F189C (with disulfide bond) (human alpha-1-antitrypsin mutein) (from UniProt P01009 25-418)	1.8e+06 M⁻¹ s⁻¹
wild type E. coli recombinant AT (human alpha-1-antitrypsin) (from UniProt P01009 26-418)	1.6e+06 M⁻¹ s⁻¹

Source: patent US20100248309A1
